Results reported in the supplement of paper PMC9170038.

Test system: MS2 coat protein
Assay: apparent KD of MS2 coat protein; designed switch direction (-1 OFF switch, 1 ON switch): -1; higher = weaker reporter binding
How it was run: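 The reported apparent KD is a per-design median over clusters, from curve fits of normalised cluster fluorescence. Protein titrations used SNAP-549-labelled MS2 coat protein, doubled from 0.7 or 1.5 nM to 3 µM, in Tris-HCl pH 7.5 buffer with KCl, MgCl2, BSA, DTT, tRNA and Tween-20, with no input, 200 uM small-molecule ligand, or an oligonucleotide input. The RNA switches were transcribed on Illumina chips by stalled E. coli RNA polymerase.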

[1] = Eterna round: R95, input ligand: microRNA oligo, concentration not stated
[2] = input ligand: microRNA oligo, concentration not stated
[3] = Eterna round: R95, input ligand: FMN 200 uM
[4] = Eterna round: R95, input ligand: none

Row | Sequence | apparent KD of MS2 coat protein [1] [nM] | apparent KD of MS2 coat protein (input ligand: FMN 200 uM) [nM] | apparent KD of MS2 coat protein [2] [nM] | apparent KD of MS2 coat protein (input ligand: none) [nM] | apparent KD of MS2 coat protein [3] [nM] | apparent KD of MS2 coat protein [4] [nM]
1 | AGCUCAAAAGUGAGGAUAUCUAGGGUCAAAUGACCGGAGAAGGCACAUGAGGAUCACCCAUGUAACGCCAUGGA [Ceinveusar] (puzzle: Brourd's mod of Exclusion 4) | 12.5 | – | – | – | – | –
2 | ACAUGAGGAUCACCCAUGUACACGUAAUGGCUCAUGUAGAGUCAGGAUAUGCGUGGCGAACUCGCGCAGAAGGGACAAGACUGG [Deportation 21 - Jieux - Exclusion NG 3] (Eterna round: R96, puzzle: Exclusion NG 3) | – | 27.1 | 18.6 | 23 | – | –
3 | UUUAAUUUUUUUUUUUUACAAGCUUUUUGCUCGUCUUAUACAUGAGGAUCACCCAUGUAGAUGGAGGAUAAAUUAUC [JMF 32] (puzzle: Sensor v3, turn-off variant 2) | 28.9 | – | – | – | 14.4 | 15.2
4 | GAACUGAAGCUUUGCUUUAGUCGUACAUGAGGAUCACCCAUGUAGGAUAUGGUAGGCUUUGCUUACUAGAAGGACAGAGUGAUC [Mat - Exclusion NG 3 - Mod of JL - D68] (Eterna round: R96, puzzle: Exclusion NG 3) | – | 61.8 | 73.8 | 113 | – | –
5 | ACAUGAGGAUCACCCAUGUAAUGAAGGGUACUAUACUAAACGUAGGAUAUCGAUGUAAGAUUGAACGAGAAGGACGAUUGCCUU [JR_ExcNG3_Sub050] (Eterna round: R96, puzzle: Exclusion NG 3) | – | 55.9 | 42 | 72.8 | – | –
6 | AAGAAACAGCUAGGAUAUCAGACCAACAUGAGGAUCACCCAUGUCAAGGUCUUUCUUAGUAGGUUUGAGAAGGAGCCAUAAAUA [Xelequriqu] (Eterna round: R96, puzzle: Exclusion NG 2) | – | 11.7 | 9.11 | 11.2 | – | –
7 | UCACGGGACUGAGGAUAUACAUCAACAAUGGUUGUAGAAGGCAGAAGGUUGAAUCAUAUACAAAACAUGAGGAUCACCCAUGUA [JR_ExcNG1_Sub032] (Eterna round: R96, puzzle: Exclusion NG 1) | – | 23 | 23.8 | 26.2 | – | –
8 | CGUCUGUAAGGAUAUGGUUACAUCGACAUGAGGAUCACCCAUGUGACGUGGGACUAGUGAUUAGAAGGUACGAACG [EX5 #65] (Eterna round: R97, puzzle: Exclusion 5) | – | 55.2 | – | 59.4 | – | –
9 | AAUUAACAUGUAGGAUAUCUGCACGAUUAGUGCAGAGAAGGACAUGAGGAUCACCCAUGUAUAGCGACUUCGGUCGCAAUAAUU [ENG1/2-B1] (Eterna round: R96, puzzle: Exclusion NG 1) | – | 161 | 69.5 | 80.6 | – | –
10 | UGUAUACAUGAGGAUCACCCAUGUAAGGAUAUACAUCAGAUCGACACCGGACUGGCCCGUAGAAGGUGCGUGGA [Eternabot (L2) Solution 67] (Eterna round: R97, puzzle: Exclusion 1) | – | 24.9 | – | 24 | – | –
11 | UUACGGAUAGAGGAUAUAUUAAGGAAGGUUACGAUAGAAGGCUAGACAUGAGGAUCACCCAUGUAUAUUGGGAU [JR_Ex6_Sub072] (Eterna round: R97, puzzle: Exclusion 6) | – | 172 | – | 144 | – | –
12 | AUGGUUCGGUCAGGAUAUCGUAGAUUGAAUAGUAUGAUUUACAUGAGGAUCACCCAUGUUACAUACGAGAAGGGACCGAAUCAU [JR_ExcNG2_Sub024] (Eterna round: R96, puzzle: Exclusion NG 2) | – | – | 10.4 | – | – | –
13 | GCACGGUAAGUGAGGAUAUACCUCUGGAUACAGAGGUAGAAGGCACAUGAGGAUCACCCAUGUCCUAGCCGUGC [Fiskers BMX 4 - 88] (puzzle: Brourd's mod of Exclusion 4) | 32.9 | – | – | – | – | –
14 | GCUAGUCAUGUCAGGAUAUGCAGAACCUUGGUUCUGCAGAAGGGACAUGAGGAUCACCCAUGUGCCUAACUAGC [Mat - Exclusion 4 - JL Mod - D15] (Eterna round: R97, puzzle: Brourd's mod of Exclusion 4) | – | 294 | – | 40.3 | – | –
15 | ACAUGAGGAUCACCCAUGUCUGGCUGGUCCGCUCCGGCUGUUGAGGAUAUAGCUCGGUGUCCGCGCUAGAAGGUGAGGGCCGGC [Aenatbe mod 33] (Eterna round: R96, puzzle: Exclusion NG 3) | – | 22.4 | 18.6 | 25.1 | – | –
16 | AUGUGCUGCUAAGGAUAUGUGAACUGUUUCCGAAUAGAAGGUAGCUAUACAUGAGGAUCACCCAUGUACGUGAACCGAGUAAAA [Eternabot solution 20] (Eterna round: R96, puzzle: Exclusion NG 1) | – | 20 | 19 | 24.6 | – | –
17 | AUAAAAGAAGUUAGGAUAUGGAAUCGUGGCAACGACCAGAAGGAACUUGAGGAUCACCCAAGUGAUUCUGAUCG [Atzaace] (Eterna round: R97, puzzle: Brourd's mod of Exclusion 4) | – | 15.2 | – | 14.1 | – | –

Row | Sequence | apparent KD of MS2 coat protein [1] [nM] | apparent KD of MS2 coat protein (input ligand: FMN 200 uM) [nM] | apparent KD of MS2 coat protein [2] [nM] | apparent KD of MS2 coat protein (input ligand: none) [nM] | apparent KD of MS2 coat protein [3] [nM] | apparent KD of MS2 coat protein [4] [nM]
18 | AGAUGCUCGAGUCGACAUGAGGAUCACCCAUGUACAGUUAGUGAGGAUAUCUGAGACACAUAGUAGGAGAAGGCGCGAACAUGA [Ex NG3 #13] (Eterna round: R96, puzzle: Exclusion NG 3) | – | 132 | 43.4 | 60 | – | –
19 | ACAUGAGGAUCACCCAUGUCCGGCUGGUCUGUUCCGGCUGUCGAGGAUAUAGUCCGGUGUUCGCGCUAGAAGGCGGGAGCUGGA [Aenatbe mod 51] (Eterna round: R96, puzzle: Exclusion NG 3) | – | 67.5 | 34.5 | 46.2 | – | –
20 | AUAUACGUUGAGGAUAUGCGAAUAAGUAUAGUUGCAGAAGGCGACACAUGAGGAUCACCCAUGUUCAUGGACAC [LRO-Ex6-03] (puzzle: Exclusion 6) | 26.6 | – | – | – | – | –
21 | CUGGUCCGAGGAUAUUUUAUGUGAUACAUGAGGAUCACCCAUGUUAUAUGAUGGAUGUUAAAAGAAGGCGGACUAG [Mat - Exclusion 5 - JL mod - D80] (puzzle: Exclusion 5) | 102 | – | – | – | 77 | 114
22 | GAAGAGACAGGAUAUACAUGAGGAUCACCCAUGUGAGGAUGUUGGAGGCGGAGGAGGUGUAGAAGGGUCAAAGA [JR_Exclu3_Sub020] (puzzle: Exclusion 3) | 26.7 | – | – | – | – | –
23 | CUAGCGAUUGUAGGAUAUCGGACUGUUUCAGUCUGAGAAGGACAUGAGGAUCACCCAUGUGAUGGAUCGUGAGAUCCACGCUAG [JL ENG1 3.80] (Eterna round: R96, puzzle: Exclusion NG 1) | – | 195 | 25.7 | 27.9 | – | –
24 | AGAAAUGUCCAUGGCCGCAAGCUUUUUACUUGUCUUACCACAUGAGGAUCACCCAUGUGACAUGGACUCCUUAUGAU [Sensor v3, turn-off variant 2 (MOD of Oranla v.3)] (puzzle: Sensor v3, turn-off variant 2) | 43 | – | – | – | 17 | 14.8
25 | AAUAAGCUAGGAUAUACAUGAGGAUCACCCAUGUAUGACGAUACAGAAUCUGGCCCGAGUAGAAGGAGCAAACU [EX3 B.7] (Eterna round: R97, puzzle: Exclusion 3) | – | 23.2 | – | 17.4 | – | –
26 | AGCGGGUUAGGAUAUACCUGGGUAUGAAAAGCCUAACCUCGACAUGAGGAUCACCCAUGUAGAAGGAGCUCGGC [Eternabot (Original) Solution 3] (Eterna round: R97, puzzle: Exclusion 2) | – | 91 | – | 36.9 | – | –
27 | UACGAGUUAGGAUAUGCAAUGGGCUCGCUUUCCUUCGAUAAACUUGAGGAUCACCCAAGUAGAAGGAACUUGUA [Mod 36 - Jieux - Exclusion 2] (Eterna round: R97, puzzle: Exclusion 2) | – | 19.9 | – | 16.2 | – | –
28 | GAGUGCUUAGGAUAUACAUGAGGAUCACCCAUGUGCUUCAGCUAGGAGACUAGCAUUGGUAGAAGGGAGUACUC [Mod of lroppy 5 - Jieux - Exclusion 3] (Eterna round: R97, puzzle: Exclusion 3) | – | 24.2 | – | 14.9 | – | –
29 | AUCUUGUCAGGAUAUCUUACAUAACAAUCGUAGUUACCAUUGGAGAAGGGACAUGAGGAUCACCCAUGUUAGCC [tap-tap-tappy42] (Eterna round: R97, puzzle: Exclusion 4) | – | 20.8 | – | 19.8 | – | –
30 | CUAGUCCGAGGAUAUAUUAUGUGAAACAUGAGGAUCACCCAUGUAAUAUGAUGGAUGUAAAUAGAAGGCGGACUAG [Mat - Exclusion 5 - JL mod - D25] (puzzle: Exclusion 5) | 17.4 | – | – | – | 37.9 | 36.1
31 | CAAUGUACCUAGGAUAUAACCUACGACAUUGGGUUAGAAGGAGGAACAUGAGGAUCACCCAUGUGACUUCGCAA [Abiisbe] (puzzle: Exclusion 6) | 9.5 | – | – | – | – | –
32 | GCGCUGCGAGGAUAUACAUGAGGAUCACCCAUGUGUCGGCAGCCAUGGUAGUACAAAUGUAGAAGGCGCGUAAA [EX3 #51] (Eterna round: R97, puzzle: Exclusion 3) | – | 202 | – | 165 | – | –
33 | AGGUAACAUGAGGAUCACCCAUGUCAGGAUAUCAGUAAGAUUAGAAUAGAGUAGAGGAUGAGAAGGGACUAUAU [Excluse me! 19- Jieux - Exclusion 1] (puzzle: Exclusion 1) | 42.7 | – | – | – | – | –
